# B1: E-box DNA probe (22 bp) (dsDNA)
# DNA 1: CCGGCTGACACGTGGTATTAAT
# DNA 2: ATTAATACCACGTGTCAGCCGG
# Columns and labels:
# [1] = target: Omomyc-MAX covalent heterodimer 6 (lysine-linked) (UniProt P01106;P61244 SEQ:1-90,SEQ:1-80); experiment: EMSA; 2 uM protein, 1 uM DNA; MES 10 mM, KCl 150 mM, MgCl2 1 mM, pH 6.5, RT; conditions: protein: synthetic; tags: chemically synthesized; C-termini linked via Lys-betaAla-Lys linker; Boc-Gly coupled as last residue of MAX during synthesis
# Description: (§1) Biophysical characterization confirmed the folding and DNA-binding activity of the four covalent protein dimers 3, 4, 5, and 6. The dimers were first analyzed by sodium dodecyl sulfate polyacrylamide gel electrophoresis (SDS-PAGE). […] Next an electrophoretic mobility shift assay (EMSA) was performed to determine the dimers' DNA binding activity. At a DNA concentration of 1 μM and protein concentration of 2 μM, all dimers formed complexes with the E-Box DNA, as observed by the shift retardation on the gel.
# (§2) The E-Box DNA probe (2 μM in binding buffer) was heated to 95° C. for 5 minutes and then let cool down to room temperature over 15 minutes for double-strand annealing. Protein dimer (4 μM in binding buffer: MES 10 mM, KCl 150 mM, MgCl₂ 1 mM, TCEP 1 mM, glycerol 10%, pH=6.5) was added to the DNA (final concentrations: 2 μM protein and 1 μM DNA) and the mixture was incubated for 1 h at room temperature. During the incubation, a 10% polyacrylamide gel was prerun (1 h, 4° C., 100 V) in 1× TBE buffer. After that time, DNA protein mixture (20 μL) was mixed with 6× DNA Loading Dye (4 μL)) and loaded on the gel, which was run at 75 V, for 90 min at 4° C. The gel was washed with water for 20 seconds and then stained with 0.02% ethidium bromide in 1xTBE buffer for 15 min at room temperature. Bands were visualized on a Biorad Gel imager.
# [2] = target: Omomyc-Omomyc covalent homodimer 4 (lysine-linked) (UniProt P01106;P01106 SEQ:1-90,SEQ:1-90); experiment: as above; conditions: protein: synthetic; tags: chemically synthesized; C-termini linked via Lys-betaAla-Lys linker; chain copies: 2 stated
# Description: as §1, §2
# [3] = target: MYC-MAX covalent heterodimer 5 (lysine-linked) (UniProt P01106;P61244 SEQ:1-82,SEQ:1-80); experiment: as above; conditions: protein: synthetic; tags: chemically synthesized; C-termini linked via Lys-betaAla-Lys linker; Boc-Gly coupled as last residue of MAX during synthesis
# Description: as §1, §2
# [4] = target: Max-Max 14 (S-aryl linked covalent dimer) (UniProt P61244;P61244 SEQ:1-80,SEQ:1-80); experiment: BLI; conditions: protein: synthetic; tags: chemically synthesized; C-terminal cysteines crosslinked by dithiobenzene; chain copies: 2 stated
# [5] = target: Omomyc analog 12 (C-terminal Cys), non-covalent homodimer (UniProt P01106 SEQ:1-90); experiment: EMSA; Omomyc+Omomyc; conditions: protein: synthetic; tags: chemically synthesized; C-terminal cysteine added; chain copies: 2 stated
# From the text: (§3) The three synthetic analogs 10, 11, and 12 can form non-covalent dimers and bind to the target E-box DNA (5′-[…]-3′). […] However, it is not possible to determine which dimeric species form in a solution containing two different monomers. For instance, upon mixing Max (11) and Omomyc (12), three different dimers (Max/Max, Omomyc/Omomyc and Max/Omomyc) can form and potentially bind to DNA (FIG. 18). To assess the activity of these protein complexes in a reliable manner, access to well-defined covalent protein dimers is critical.
# [6] = target: Max analog 11 (C-terminal Cys), non-covalent homodimer (UniProt P61244 SEQ:1-80); experiment: EMSA; Max+Max; conditions: protein: synthetic; tags: chemically synthesized; C-terminal cysteine added; chain copies: 2 stated
# From the text: as §3
# [7] = target: Omomyc-Max 17 (S-aryl linked covalent dimer) (UniProt P01106;P61244 SEQ:1-90,SEQ:1-80); experiment: EMSA; conditions: protein: synthetic; tags: chemically synthesized; C-terminal cysteines crosslinked by dithiobenzene
# [8] = target: Myc-Max 16 (S-aryl linked covalent dimer) (UniProt P01106;P61244 SEQ:1-82,SEQ:1-80); experiment: EMSA; conditions: protein: synthetic; tags: chemically synthesized; C-terminal cysteines crosslinked by dithiobenzene
# [9] = target: MYC monomer (bHLHZ, Example 2) (UniProt P01106 SEQ:1-82); experiment: EMSA; negative control, 4 uM protein, 1 uM DNA; conditions: protein: synthetic; tags: chemically synthesized by automated flow peptide synthesis
# Description: as §1, §2
# [10] = target: Myc-Myc 13 (S-aryl linked covalent dimer) (UniProt P01106;P01106 SEQ:1-82,SEQ:1-82); experiment: EMSA; negative control; conditions: protein: synthetic; tags: chemically synthesized; C-terminal cysteines crosslinked by dithiobenzene; chain copies: 2 stated
# [11] = target: Myc analog 10 (C-terminal Cys) (UniProt P01106 SEQ:1-82); experiment: EMSA; Myc alone cannot homodimerize; conditions: protein: synthetic; tags: chemically synthesized; C-terminal cysteine added
# From the text: as §3
binder,measurement,setting,value
B1,binding result,[1],binds
same,binding result,[2],binds
same,binding result,[3],binds
same,Kd,[4],50 nM
same,binding result,[5],binds
same,binding result,[6],binds
same,binding result,[7],binds
same,binding result,[8],binds
same,binding result,[9],no binding
same,binding result,[10],no binding
same,binding result,[11],no binding

# Source: patent publication US20240336649, “SYNTHESIS OF COVALENT PROTEIN DIMERS THAT CAN INHIBIT MYC-DRIVEN TRANSCRIPTION” (MASSACHUSETTS INSTITUTE OF TECHNOLOGY, published 2024)
